These results are taken from PMC5853329, “EjNAC3 transcriptionally regulates chilling-induced lignification of loquat fruit via physical interaction with an atypical CAD-like gene”.

Series [1] concerns the target T1, EjNAC3 (Eriobotrya japonica (loquat), UniProt A0A2D3HXD3 1-352).
T1 sequence: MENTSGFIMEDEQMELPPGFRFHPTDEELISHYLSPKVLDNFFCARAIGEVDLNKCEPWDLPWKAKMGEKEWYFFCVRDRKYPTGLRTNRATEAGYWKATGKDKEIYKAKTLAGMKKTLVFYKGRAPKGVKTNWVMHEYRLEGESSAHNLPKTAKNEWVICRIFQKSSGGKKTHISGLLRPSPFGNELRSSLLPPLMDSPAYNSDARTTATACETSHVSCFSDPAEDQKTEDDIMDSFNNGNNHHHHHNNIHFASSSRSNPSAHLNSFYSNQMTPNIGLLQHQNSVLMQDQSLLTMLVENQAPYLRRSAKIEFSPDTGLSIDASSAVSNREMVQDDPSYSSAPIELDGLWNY
In words: EMSA; 5 mM Mg2+, poly(dI-dC), biotinylated probe 1 nM (legend; Methods 2 nM); LightShift kit binding buffer, 5 mM MgCl2, 2.5% glycerol, 0.05% NP-40, 50 ng/ul poly(dI-dC), 50 ng protein, 20 min room temperature; 6% native PAGE, 0.5x TBE; pH and salt not given. As to conditions: protein: recombinant; tags: His (pET-32a fusion); chain copies: 2; blunt. On the technique in general: Mobility shift assays separate free from complexed probe on a gel.

Series [2] concerns the target T1, EjNAC3. Put plainly: competition; cold probe 100 or 300 nM vs 1 nM biotinylated probe; reduces shift; LightShift kit binding buffer, 5 mM MgCl2, 2.5% glycerol, 0.05% NP-40, 50 ng/ul poly(dI-dC), 50 ng protein, 20 min room temperature; 6% native PAGE, 0.5x TBE; pH and salt not given. As to conditions: protein: recombinant; tags: His (pET-32a fusion); chain copies: 2; label: none; blunt.

B1: EjCAD-like promoter probe (-502 to -454) (dsDNA)
DNA 1: GTCCTATACGTAATCTTATACTCCAAATAAAATTAGGAATGCAGCATAA
DNA 2: TTATGCTGCATTCCTAATTTTATTTGGAGTATAAGATTACGTATAGGAC
Regarding B1, the binding result with EjNAC3 [1] is listed as “binds”.

B2: EjCAD-like promoter cold probe (-502 to -454) (dsDNA)
DNA 1: B1 DNA 1
DNA 2: B1 DNA 2
For the molecule B2, the binding result in the series with EjNAC3 [2] is on record as “binds”.
